15 molecules from patent US20240158500A1 (UCL BUSINESS, published 2024) can be followed below.

Usually EC50 stands for the concentration at which the effect is half-maximal. A low value points to greater potency. As usually defined, the Kd is the concentration at which binding is half-saturated. What is called koff is the first-order rate constant of dissociation. A higher koff goes with fast dissociation. A word on the kon: it is a measure of how fast the partners come together. Low values mean slower complex formation, high ones faster complex formation.

Assay [1] deals with CD160 fused with Twin streptag (panning reagent from transfected 293T supernatant, unpurified or purified via its Fc region) (human) (UniProt O95971). In words: ELISA, coating antigen CD160-Fc purified (Purified CD160 mIgG2a Fc), BY55-huIgG1 titrated, OD 450nm. The table under panel C repeats the value. The curve has no upper plateau in the range shown. Background: In an ELISA, binding on a coated surface is turned into a signal by an enzyme label.

Assay [2] has the same target. In words: ELISA, coating antigen HEK supernatant (unpurified CD160 mIgG2a Fc), BY55-huIgG1 titrated, OD 450nm. The table under panel C repeats the value. The curve has no upper plateau in the range shown.
Assay [3] has as its target commercially sourced CD160 protein (UniProt O95971). As to the kind of experiment: ELISA, coating antigen CD160-His (Commercial CD160), BY55-huIgG1 titrated, OD 450nm. The table under panel C repeats the value.
Assay [4] addresses T1, purified CD160 (SPR analyte) (UniProt O95971 25-159, limits assumed).
T1 sequence (looked up): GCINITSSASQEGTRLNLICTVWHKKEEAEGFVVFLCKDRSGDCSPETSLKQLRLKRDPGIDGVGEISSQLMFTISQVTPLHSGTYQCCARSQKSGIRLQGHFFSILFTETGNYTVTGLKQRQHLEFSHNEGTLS
In words: SPR, Biacore T200, scFv captured on CM5 chip, CD160 as analyte, single-cycle kinetics, 1:1 Langmuir fit. The method, then:
FIG. 8—Characterization of the monoclonal scFv identified in the biopanning. [A] […] We identified five different CDR3H in which three were represented in multiple clones and […]. [B] Flow cytometry analysis of the five selected CDR3 expressed secreted as chimeric scFv fused with mIgG2aFc. […] [C] The affinity of these five scFv was determined using Biacore T200 technology. Individual scFvs were captured on a CM5 chip and CD160 was injected as analyte at 5 different concentration (3.70 nM, 11.11 nM, 33.33, nM, 100 nM and 300 nM) in a single-cycle kinetic study. The double-reference subtracted sensorgrams fitted with the 1:1 Langmuir binding model; kinetic and model fitting data are reported in the table.
The kinetic profile of the scFvs was studied by SPR using purified CD160 as the analyte and a range of high affinity scFvs were found (FIG. 8).

Regarding BY55-huIgG1 (antibody), the EC50 in assay [1] is 0.21 µg/mL; in assay [2] it was 0.06 µg/mL; in assay [3] it was 0.14 µg/mL.

B1: anti-CD160 scFv clone 11 (PB10) (scFv)
scFv: EVQLVESGGGLVQPGRSLKLSCAASGFTFSNYGMAWVRQAPTKGLEWVASINTSGGSTYYRDSVKGRFTISRDNAKSTLYLQMDSLRSEDTATYYCATIYYHDGSYYYAGWFAYWGQGTLVTVSSGGGGSGGGGSGGGGSDIVLTQSPALAVSPGERVSISCRASESVSTLMHWYQQKLGQQPKLLIYGASNLESGVPARFSGSGSGTDFTLNIDPVEADDIATYFCQQSWNGPWTFGGGTKLELKR
notes: Rat scFv, VH-linker-VL
In assay [4], B1 returned a Kd of 9.15 nM, an off-rate (koff) of 0.00125 s⁻¹ and an on-rate (kon) of 137000 M⁻¹ s⁻¹.

B2: anti-CD160 scFv clone 10 (scFv)
scFv: EVQLVESGPGLVQPSETLSLTCTVSGFSLTSYGVNWFRQPPGKGLEWMGTIWNDGGTDYNSALKSRLSISRDTSKSQVFLKMNSLQTEDTAIYFCARGFEYWGQGTLVTVSSGGGGSGGGGSGGGGSDIVMTQSPKSMSISVGDRVTMNCKASQNVGKNIAWYQQKPGQSPKLLIYYASNRYTGVPDRFTGSGSGTDFTLTITNMQTEDLAVYYCLQYNYNPWTFGGGTKLELKR
notes: Rat scFv, VH-linker-VL
In the case of B2, in assay [4], the affinity, expressed as Kd, was 8.91 nM; the off-rate constant (koff) turned out to be 0.00245 s⁻¹; the kon is 275000 M⁻¹ s⁻¹.

B3: anti-CD160 scFv clone 3 (C83) (scFv)
scFv: QVNLQESGPGLVQPSETLSLTCTVSGFSLTSYGVYWVRQPPGKGLEWMGRIWNDGGTDYNPALKSRLSISRDTSKSQVFLKLNSLQTEDTAIYFCARGWTHWGQGTLVTVSSGGGGSGGGGSGGGGSDIQMTQSPASLSASLGETVSIECLASEDIYNNLAWYQQKPGKSPQLLIYYASSLQDGVPSRFSGSGSGTQYSLKINSLESEDVATYFCLQDSEYPPTFGGGTKLELKR
On to B3, for which, in assay [4], binding was characterised by a dissociation constant (Kd) of 1.5e-05 nM, the koff stood at 1.69e-08 s⁻¹ and the on-rate constant (kon) came to 1.13e+06 M⁻¹ s⁻¹.

B4: anti-CD160 scFv clone 2 (C25) (scFv)
scFv: EVQLVESGGDLVQPGRSLKLSCAASGFTFSNYGMAWVRQAPTKGLEWVASVSNGGGNTYYRDSVKGRFTISRDNAKNTQYLQMDSLRSEDTATYYCVTHNYESTVFDYWGQGAMVTVSSGGGGSGGGGSGGGGSEIVLTQSPTTMTASPGEKVTITCRASSSVSYMHWYQQKPGASPKPWIYETSKLASGVPDRFSGSGSGTSYSLTINNMEAEDAATYYCQQWNYPSMYTFGPGTKLELKR
In assay [4], B4 gave a Kd of 0.262 nM, a dissociation rate constant (koff) of 6.51e-05 s⁻¹ and an on-rate (kon) of 249000 M⁻¹ s⁻¹.

B5: anti-CD160 scFv clone 12 (scFv)
scFv: EVQLVESGGGFVQPGGSLKLSCAASGFTFSNYGMAWVRQAPKKGLEWVASISSGRGNTYYRDSVKGRFTISRDNAKNTQYLQMDSLRSEDTATYYCVTHNYESTIFDYWGQGVMVTVSSGGGGSGGGGSGGGGSEIVLTQSPTTMTASPGEKVTIICRASSSVSYMHWYQQKPGASPKPWIYETSKLASGVPDRFSGSGSGTSYSLTFNNMEAEDAATYYCQQWNYPSMYTFGAGTKLELKR
notes: Rat scFv, VH-linker-VL
For the molecule B5, in assay [4], the Kd stood at 0.000853 nM, the koff turned out to be 1.75e-07 s⁻¹ and the kon is 205000 M⁻¹ s⁻¹.

B6: anti-CD160 scFv clone 19 (scFv)
scFv: EVKLVESGGGLVQPGRSLKLSCAASGFTFSNYGMAWVRQAPTKGLEWVATISNGGGNTYYRDSVKGRFTISRDNAKNTQYLQMDSLRSEDTATYYCVAHNYESTVFDYWGQGAMVTVSSGGGGSGGGGSGGGGSEIVLTQSPTPMTASPGEKVTITCRASSSVSYMHWYQQKPGASPKPWIYETSKLASGVPDRFSGSGSGTSYSLTINNMEAEDAATYYCQQWNYPSMYTFGAGTKLELKR
notes: Rat scFv, VH-linker-VL
For B6, in assay [4], the affinity, expressed as Kd, was 5.31 nM; the koff was 0.000833 s⁻¹; the on-rate (kon) was determined as 157000 M⁻¹ s⁻¹.

B7: anti-CD160 scFv clone 7 (scFv)
scFv: EVQLVESGPGLVQPSETLSLTCTVSGFSLTSHGVNWFRQPPGKGLEWMGTIWNDGGTDYNSALKSRLSIIRDTSKGQVFLKMNSLQTEDTAIYFCARGLAYWGQGTLVTVSSGGGGSGGGGSGGGGSDIQMTQSPASLSASLGETVNIECLASEDIYSDLAWYQQKPGKSPQLLIYNANSLQNGVPSRFSGSGSGTQYSLKINSLQSEDVATYFCQQYNNYPWTFGGGTKLEIKR
notes: Rat scFv, VH-linker-VL
In assay [4], B7 registered a Kd of 0.33 nM, a koff of 0.00035 s⁻¹ and a kon of 1.06e+06 M⁻¹ s⁻¹.

B8: anti-CD160 scFv clone 16 (scFv)
scFv: QVNLQESGPGLVRPSETLSLTCTVSGFSLISYGVNWFRQPPGKGLEWMGTIWNDGGTDYNSALKSRLSISRDTSKSQVFLKMNSLQTEDTAIYFCARGFEHWGQGVMVTVSSGGGGSGGGGSGGGGSDIQMTQSPASLSASLGETVSIECLTSEDISNDSAWYQQKSGKSPQLLIYAASRLQDGVPSRFSGSGSGTRYSLKISGMQPEDEADYFCQQSYKYPLTFGSGTKLEIKR
notes: Rat scFv, VH-linker-VL
On to B8, for which, in assay [4], binding was characterised by a dissociation constant (Kd) of 8.72 nM, the koff was determined as 0.00243 s⁻¹ and the kon worked out at 279000 M⁻¹ s⁻¹.

B9: anti-CD160 scFv clone 8 (PB9) (scFv)
scFv: QVNLQESGPGLVQPSETLSLTCTVSGFSLTNYGINWFRQPPGKGLEWMGTIWNDGGTDYNSALKSRLSISRDTSKSQVFLKMNSLQTEDTAIYFCARGMDAWGQGASVTVSSGGGGSGGGGSGGGGSDIQMTQSPASLSASLGETVSIECLASEDIYNNLAWYQQKPGKSPQLLIYYANSLQDGVPSRFSGSGSGTQYSLKINSLQSEDVATYFCQQYNNYPFTFGSGTKLELKR
notes: Rat scFv, VH-linker-VL
In assay [4], B9 gave a dissociation constant (Kd) of 4.92 nM, a koff of 0.00804 s⁻¹ and an on-rate constant (kon) of 1.63e+06 M⁻¹ s⁻¹.

B10: anti-CD160 scFv clone 5 (C10) (scFv)
scFv: QVQLKESGPGLVQPSETLSLTCTVSGFSLTNYGINWFRQPPGKGLEWMGTIWNDGGTDYNSALKSRLTISRDTSKSQVFLKMNSLQTEDTAIYFCARGMEAWGQGASVTVSSGGGGSGGGGSGGGGSDIQLTQSPSLLSASVGDRVTLSCKGSQNINNYLAWYQQKLGEAPKLLIYNTNSLQTGIPSRFSGSGSGTDYTLTISSLQPEDFATYFCLQHNSGYTFGAGTKLEIKR
notes: Rat scFv, VH-linker-VL; also called 010
In assay [4], B10 gave an equilibrium dissociation constant (Kd) of 18.4 nM, a koff of 0.0305 s⁻¹ and a kon of 1.65e+06 M⁻¹ s⁻¹.

B11: anti-CD160 scFv clone 1 (C123) (scFv)
scFv: EVKLVESGGGLVQPGRSLKLSCAASGFIFSNYAMAWVRQAPTKGLEWVASVNSGGANTYYRDSVKGRFTISRDNAKNTQYLHIDSLRSEDTATYYCATHNYESTVFDYWGQGAMVTVSSGGGGSGGGGSSGGGGSEIVLTQSPTTMTASPGEKVTITCRASSSVSYMHWYQQKPGASPKPWIYETSKLASGVPDRFSGSGSGTSYSLTINNMEAEDAATYYCQQWNYPSMYTFGAGTKLELKR
notes: Rat scFv, VH-linker-VL
Regarding B11, in assay [4], the Kd turned out to be 0.00154 nM, the koff is 2.76e-07 s⁻¹ and the kon worked out at 179000 M⁻¹ s⁻¹.

B12: anti-CD160 scFv clone 4 (scFv)
scFv: EVKLVESGGGLVQPGRPLKLSCAASGFTFSNYGMAWVRQAPKKGLEWVATISTGDDNTYYRDSVKGRFTISRDNAKNTQYLQMDSLRSEDTATYYCATHNYESTIFDYWGQGVMVTVSSGGGGSGGGGSGGGGSDIAITQSPASMTASPGERVTITCRASSSVSYMHWYQQKPGASPKPWIYETSKLASGVPDRFSGSGSGTSYSLTINNMEAEDAATYYCQQWNYPSMYTFGAGTKLELKR
In assay [4], B12 registered a dissociation constant (Kd) of 0.12 nM, a koff of 3.9e-05 s⁻¹ and an on-rate (kon) of 325000 M⁻¹ s⁻¹.

B13: anti-CD160 scFv clone 6 (SC14) (scFv)
scFv: EVQLVESGGGFVQPGRSLKLSCAASGFTFSNYAMAWVRQAPTKGLEWVASINSGGGDSYYRDSVKGRFTISRDNAKNTQYLQMDSLRSEDTATYYCATHNYGSTIFDYWGQGAMVTVSSGGGGSGGGGSGGGGSEIILTQSPTTMTASPGEKVTITCRASSSVSYMHWYQQKPGASPKPWIYETSKLASGVPDRFSGSGSGTSYSLTINNMEAEDAATYYCQQWNYPSMYTFGAGTKLELKR
notes: Rat scFv, VH-linker-VL
Turning to B13, in assay [4], the dissociation constant (Kd) was 0.541 nM, the koff was 0.000143 s⁻¹ and the kon turned out to be 264000 M⁻¹ s⁻¹.

B14: anti-CD160 scFv clone 9 (PB6) (scFv)
scFv: EVQLVESGGGLVQPGRSLKLSCAASGFTFSNYAMAWVRQAPTKGLEWVASISSGGGDTYYRDSVKGRFTISRDNSKNTQYLQMDSLRSEDTATYYCATHNYESTVLITWGQGASVTVSSGGGGSGGGGSGGGGSEIVLTQSPTTTAASPGERVTITCRASSSVSYMHWYQQKPGASPKPWIYETSKLASGVPDRFSGSGSGTSYSLTINNMEAEDAATYYCQQWNYPSMYTFGAGTKLEIKR
notes: Rat scFv, VH-linker-VL
In assay [4], B14 registered a Kd of 5.18 nM, a koff of 0.00211 s⁻¹ and an association rate constant (kon) of 408000 M⁻¹ s⁻¹.
